Experimental data reported in patent US20240307442.

B1: Active Neutrophil Elastase (protein)
chain: IVGGRRARPHAWPFMVSLQLRGGHFCGATLIAPNFVMSAAHCVANVNVRAVRVVLGAHNLSRREPTRQVFAVQRIFENGYDPVNLLNDIVILQLNGSATINANVQVAQLPAQGRRLGNGVQCLAMGWGLLGRNRGIASVLQELNVTVVTSLCRRSNVCTLVRGRQAGVCFGDSGSPLVCNGLIHGIASFVRGGCASGLYPDAFAPVAQFVNWIDSIIQ
Western Blot of ECM molecules degraded by culture media (fibronectin): NE released by GCC CAR CK+NE cells can degrade ECM molecules when GCC CAR CK+NE Cells are co-cultured with the substrate cells | Western Blot of ECM molecules degraded by culture media (collagen I): NE released by GCC CAR CK+NE cells can degrade ECM molecules when GCC CAR CK+NE Cells are co-cultured with the substrate cells | Western Blot of ECM molecules degraded by culture media (collagen IV): NE released by GCC CAR CK+NE cells can degrade ECM molecules when GCC CAR CK+NE Cells are co-cultured with the substrate cells
